In one data set the test system is T1, CN19 S12A.
T1 sequence: KRPPKLGQIGRAKRVVIED

The next data set relates to T2, CN19.
T2 sequence: KRPPKLGQIGRSKRVVIED

Chain of CaMKII (chain): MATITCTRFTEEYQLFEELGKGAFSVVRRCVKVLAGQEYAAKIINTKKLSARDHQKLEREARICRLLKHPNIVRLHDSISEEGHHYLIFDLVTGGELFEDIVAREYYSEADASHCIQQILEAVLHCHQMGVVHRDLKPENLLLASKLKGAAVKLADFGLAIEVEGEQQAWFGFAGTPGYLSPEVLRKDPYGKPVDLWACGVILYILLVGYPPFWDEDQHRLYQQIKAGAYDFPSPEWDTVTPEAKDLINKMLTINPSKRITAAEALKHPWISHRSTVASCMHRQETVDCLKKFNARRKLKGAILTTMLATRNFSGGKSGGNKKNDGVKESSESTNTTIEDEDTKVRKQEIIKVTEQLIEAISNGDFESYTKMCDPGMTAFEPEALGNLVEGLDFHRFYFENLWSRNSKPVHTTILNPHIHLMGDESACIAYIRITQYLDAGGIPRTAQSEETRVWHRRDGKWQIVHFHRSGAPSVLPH

Turning to CaMKII, the “AC2 substrate phosphorylation by CaMKII” value in the data set with CN21b is “The other 21mer peptides, CN21b and CN21c, had minimal or no effect”. Besides, in the data set on CaM-KIIN, the “CaMKII substrate- and auto-phosphorylation (Western)” value is “CaM-KIIN and CN21 block substrate- and T305 but not T286 auto-phosphorylation”. Besides, in the data set on CN21c, the “AC2 substrate phosphorylation by CaMKII” value is “The other 21mer peptides, CN21b and CN21c, had minimal or no effect”; the “MAP2 phosphorylation by CaMKII (Western), 5 µM peptide” value is reported as “Only CN21c failed to block MAP2 phosphorylation”.
In the case of PKC, the “phosphate incorporation by PKC” value with CN19 S12A is reported as “CN19 but not its S12A mutant was phosphorylated by PKC”. Moreover, the “phosphorylation rate by PKC relative to a MARCKS peptide substrate” value in the data set on CN19 is listed as “with a phosphorylation rate of >50% compared to a peptide derived from a major PKC substrate protein”.

Source of the values: US20170368136.
